Test results published in patent US20250243282A1.

B1: F846C.1H5 (antibody, V domains shown)
VH: EVQLLESGGGLVKPGGSLKLSCAASGFTFSSYAMSWVRQTPEKRLEWVASISSGGDTYYPDSVKGRFTISRDNARNILYLQMSSLRSEDTAMYYCASYGNSLFDYWGQGTTLTVSS
VL: DVVMTQTPLSLPVSLGDQASISCRSSQSLVHNSGNTYLHWYLQRPGQSPNLLIYKVSNRFSGVPDRFSGSGSGTDFTLKISRVAAEDLGVYFCSQSTHVPPTFGGGTKLEIKR
B2: 14D11.2D2 (antibody, from another filing, V domains shown)
VH: QVQLKESGPGLVAPSQSLSITCTISGFSLSSYGVHWVRQPPGKGLEWLVVIWSDGSTTYNSTLKSRLSISKDNSKSQVFLKMNSLQTDDTAMYYCARHISNYGTMDYWGQGTSVTVS
VL: DIQMTQTTSSLSASLGDRVTISCRASQDIRNYLNWYQQKPDGSIKLLIYYTSRLHSGVPSRFSGSGSGTDYSLTIRNLEQEDIATYFCQHFNTLPPTFGGGTKLEIK
B3: 847.14H4 (antibody, from a related filing, V domains shown)
VH: QIQLVQSGPELTKPGETVKISCKASGYTFTDYGMNWVRQAPGETLKWMGWINTYTGEPTYADDFKGRFAFSLESSASTAYLQINNLKNEDVATYFCARYPMDYWGQGTSVTVSS
VL: QAVVTQESALTTSPGETVTLTCRSSTGAVTTSNYANWVQEKPDHLFTGLIGGTNNRAPGVPARFSGSLIGDKAALTITGAQTEDEAIYFCALWYSNHLVFGGGTKLTVL
B4: TB006 (antibody, human IgG4 S228P, kappa, V domains shown)
VH: QVQLVQSGAEVKKPGASVKVSCKASGYSFTNYYMHWVRQAPGQRLEWMGWIYPGSGNTNYNEKFQGRVTITADTSASTAYMELSSLRSEDTAVYYCSTAPGGFDVWGQGTTVTVSS
VL: DIVMTQTPLSLSVTPGQPASISCKSSKSLLHSDGITYLYWYLQKPGQSPQLLIYRMSNLASGVPDRFSGSGSGTDFTLKISRVEAEDVGVYYCAQMLEFPLTFGQGTKLEIKR

Experiments:
[1] = target: Recombinant human Gal3 (rhGal3) (TrueBinding, #QC200361) (human) (UniProt P17931); assay: cell-based or functional assay
[2] = target: cynomolgus Gal3 (cynomolgus); assay: method not stated (FIG. 20)
Wherever % inhibition of CD62L shedding is given: test concentration or dose not given here.
Wherever % inhibition of IL-6 secretion is given: test concentration or dose not given here.
Wherever % inhibition of TNFα secretion is given: test concentration or dose not given here.

Sequence of Recombinant human Gal3 (rhGal3) (TrueBinding, #QC200361) (human) (P17931 2-250 limits assumed): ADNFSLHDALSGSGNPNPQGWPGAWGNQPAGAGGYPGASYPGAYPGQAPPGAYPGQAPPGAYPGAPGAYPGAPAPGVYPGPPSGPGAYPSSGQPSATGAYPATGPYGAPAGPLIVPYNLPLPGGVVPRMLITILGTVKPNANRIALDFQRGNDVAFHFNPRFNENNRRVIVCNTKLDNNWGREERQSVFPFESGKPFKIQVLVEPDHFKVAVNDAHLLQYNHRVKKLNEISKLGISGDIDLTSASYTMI
Sequence of cynomolgus Gal3 (cynomolgus) (chain, as listed by the source): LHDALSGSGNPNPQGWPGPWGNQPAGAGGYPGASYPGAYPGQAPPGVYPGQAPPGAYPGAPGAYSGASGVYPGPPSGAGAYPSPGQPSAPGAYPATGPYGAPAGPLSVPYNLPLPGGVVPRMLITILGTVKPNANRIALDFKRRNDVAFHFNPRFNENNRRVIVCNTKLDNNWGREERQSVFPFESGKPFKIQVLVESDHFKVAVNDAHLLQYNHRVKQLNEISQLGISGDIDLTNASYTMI

Binder | % inhibition of CD62L shedding [1] [%] | % inhibition of IL-6 secretion [1] [%] | % inhibition of TNFα secretion [1] [%] | Kd [2] [nM]
B1 | 100 | -49.7 | -162 | –
B2 | 86.2 | – | – | –
B3 | 34.4 | -71.4 | -181 | –
B4 | – | – | – | 5.1
